Experimental data: paper PMC4980550, “Structural Basis for Plexin Activation and Regulation” (Neuron, 2016)
“And” between values parts separate entries of the source, which are not always exact repeats. Equal entries are not always repeated.

Columns and labels:
[1] = biological target: PlxnA1_(1-10), full extracellular segment of mouse PlxnA1 (domains 1-10) (mouse) (UniProt P70206); experiment: AUC; sedimentation velocity, 40,000 rpm, absorbance at 280 nm, c(s) analysis; protein at 28.1 μM (4 mg/ml)
[2] = biological target: PlxnA2 extracellular-transmembrane segment fused to mTFP1 (donor) or mVenus (acceptor) (mouse); experiment: FRET or BRET; FRET-FLIM in live COS-7 cells co-expressing mTFP1- and mVenus-fused PlxnA2; before Sema6A stimulation
[3] = biological target: the molecule itself; experiment: crystal structure; crystals of full extracellular segments; intermolecular plexin-plexin interface in the crystal; 4 to 10 Å
[4] = biological target: T1, PlxnA2_(1-2), PlxnA2 sema-PSI1 domains (mouse, UniProt P70207 31-561); experiment: SPR; equilibrium experiments, Biacore T200, 25°C, 10 mM HEPES pH 7.5, 150 mM NaCl, 0.005% Tween 20; biotinylated PlxnA2_(4-5) (wild type or mutant) on streptavidin chip, PlxnA2_(1-2) as analyte; 1:1 Langmuir model; settings: both partners purified
T1 construct: Plexin-A2, mouse, sema and PSI1 domains (domains 1-2)
T1 sequence: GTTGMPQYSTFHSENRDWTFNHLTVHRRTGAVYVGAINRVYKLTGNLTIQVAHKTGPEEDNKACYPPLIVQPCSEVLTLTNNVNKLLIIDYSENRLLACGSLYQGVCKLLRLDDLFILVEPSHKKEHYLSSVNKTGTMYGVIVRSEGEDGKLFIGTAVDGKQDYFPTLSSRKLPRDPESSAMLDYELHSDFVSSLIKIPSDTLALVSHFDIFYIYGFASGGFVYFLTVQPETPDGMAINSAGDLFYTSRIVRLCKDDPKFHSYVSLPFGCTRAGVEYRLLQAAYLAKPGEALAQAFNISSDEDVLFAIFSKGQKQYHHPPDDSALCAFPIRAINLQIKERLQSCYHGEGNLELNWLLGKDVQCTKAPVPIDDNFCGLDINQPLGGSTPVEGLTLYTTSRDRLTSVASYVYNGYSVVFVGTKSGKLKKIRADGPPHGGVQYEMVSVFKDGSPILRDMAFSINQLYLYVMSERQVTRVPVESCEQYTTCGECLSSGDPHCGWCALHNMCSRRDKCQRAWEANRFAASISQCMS

“PlxnA1_(1-10), full extracellular segment of mouse PlxnA1 (domains 1-10) (from UniProt P70206 28-1242) (domain or fragment)” was tested, and the stoichiometry N [1] was 2 and 3 and 4.

With “PlxnA2 extracellular-transmembrane segment fused to mTFP1 (donor) or mVenus (acceptor) (receptor)” the average fraction of interacting donor (fD) [2] was 0.11.

B1: PlxnA4_(1-10), full extracellular segment of mouse PlxnA4 (domain or fragment, UniProt Q80UG2 24-1236, looked up)
chain: TLLPRQPPQLSQKPSFVTFRGEPAEGFNHLVVDERTGHIYLGAVNRIYKLSSDLKVLVTHQTGPDEDNPKCYPPRIVQTCNEPLASTNNVNKMLLIDYKENRLIACGSLYQGICKLLRLEDLFKLGEPFHKKEHYLSGVNESGSVFGVIVSYSNFDDKLFIATAVDGKPEYFPTISSRKLTKNSEADGMFAYVFHDEFVASMIKIPSDTFTVIPDFDIYYVYGFSSGNFVYFLTLQPEMVSPPGSTTKEQVYTSKLVRLCKEDTAFNSYVEVPIGCERNGVEYRLLQAAYLSKAGAVLGRTLGVRPDDDLLFTVFSKGQKRKMKSLDESALCIFILKQINDRIKDRLQSCYRGEGTLDLAWLKVKDIPCSSALLTIDDNFCGLDMNAPLGVSEMVRGIPVFTEDRDRMTSVIAYVYKNHSLAFVGTKSGKLKKIRVDGPKGNALQYETVQVVDSGPVLRDMAFSKDHEQLYIMSERQLTRVPVESCGQYRSCGECLGSGDPHCGWCVLHNTCTRKERCERSREPRRFASEMKQCVRLTVHPNNISVSQYNVLLVLETYNVPELSAGVNCTFEDLSEMDGLVIGNQIQCYSPAAKEVPRIITENGDHHVVQLQLKSKETGMTFASTSFVFYNCSVHNSCLSCVESPYRCHWCKYRHVCTHDPNTCSFQEGRVKLPEDCPQLLRVDKILVPVEVIKPITLKAKNLPQPQSGQRGYECILNIQGIEQRVPALRFNSSSVQCQNTSYSYEGMEINNLPVELTVVWNGHFNIDNPAQNKVYLYKCGAMRESCGLCLKADPDFECGWCQSPGQCTLRQHCPAHESRWLELSGANSKCTNPRITEIIPVTGPREGGTKVTIRGENLGLEFRDIASHVKVAGVECSPLVDGYIPAEQIVCEMGEAKPSQHAGFVEICVAVCRPEFMARSSQLYYFMTLTLADLKPNRGPMSGGTQVTITGTNLNAGSNVVVMFGSQPCLFHRRSPSYIICNTTSSEEVLDMKVTVQVDRARIRQDLVFQYVEDPTIVRIEPEWSIVSGNTPIAVWGTHLDLIQNPQIRAKHGGKEHINICEVLNATEMTCQAPALALGPDHQSDLTERPEEFGFILDNVQSLLILNKTNFTYYPNPVFEAFSPSGILELKPGTPIILKGKNLIPPVAGGNVKLNYTVLVGEKPCTVTVSDVQLLCESPNLIGRHKVMARVGGMEYSPGMVYIAPDSPLSLP
notes: Plexin-A4, mouse, full extracellular segment (domains 1-10); also called PlxnA4 full ectodomain
B1: binds [3].

B2: PlxnA2_(1-10), full extracellular segment of mouse PlxnA2 (domain or fragment, UniProt P70207 35-1237, looked up)
chain: MPQYSTFHSENRDWTFNHLTVHRRTGAVYVGAINRVYKLTGNLTIQVAHKTGPEEDNKACYPPLIVQPCSEVLTLTNNVNKLLIIDYSENRLLACGSLYQGVCKLLRLDDLFILVEPSHKKEHYLSSVNKTGTMYGVIVRSEGEDGKLFIGTAVDGKQDYFPTLSSRKLPRDPESSAMLDYELHSDFVSSLIKIPSDTLALVSHFDIFYIYGFASGGFVYFLTVQPETPDGMAINSAGDLFYTSRIVRLCKDDPKFHSYVSLPFGCTRAGVEYRLLQAAYLAKPGEALAQAFNISSDEDVLFAIFSKGQKQYHHPPDDSALCAFPIRAINLQIKERLQSCYHGEGNLELNWLLGKDVQCTKAPVPIDDNFCGLDINQPLGGSTPVEGLTLYTTSRDRLTSVASYVYNGYSVVFVGTKSGKLKKIRADGPPHGGVQYEMVSVFKDGSPILRDMAFSINQLYLYVMSERQVTRVPVESCEQYTTCGECLSSGDPHCGWCALHNMCSRRDKCQRAWEANRFAASISQCMSLEVHPNSISVSDHSRLLSLVVNDAPNLSEGIACAFGNLTEVEGQVSGSQVICISPGPKDVPVIPLDQDWFGLELQLRSKETGKIFVSTEFKFYNCSAHQLCLSCVNSAFRCHWCKYRNLCTHDPTTCSFQEGRINVSEDCPQLVPTEEILIPVGEVKPITLKARNLPQPQSGQRGYECVLSIQGAVHRVPALRFNSSSVQCQNSSYQYDGMDISNLAVDFAVVWNGNFIIDNPQDLKVHLYKCAAQRESCGLCLKADHKFECGWCSGERRCTLHQHCPSTSSPWLDWSSHNVKCSNPQITEILTVSGPPEGGTRVTIHGVNLGLDFSEIAHHVQVAGVPCTPIPGEYIIAEQIVCEMGHAVIGTTSGPVRLCIGECKPEFMTKSHQQYTFVNPSVLSLSPIRGPESGGTMVTITGHYLGAGSSVAVYLGNQTCEFYGRSMNEIVCVSPPSSNGLGPVPVSVSVDRARVDSSLQFEYIDDPRVQRIEPEWSITSGHTPLTITGFNLDVIQEPRVRVKFNGKESVNVCTVVNTTTLTCLAPSLTSDYRPGLDTVERPDEFGFLFNNVQSLLIYNDTKFIYYPNPTFELLSPTGILDQKPGSPIILKGKNLCPPASGGAKLNYTVMIGETPCTVTVSETQLLCEPPNLTGQHKVMVHVGGMVFSPGSVSVISDSLLTLP
notes: Plexin-A2, mouse, full extracellular segment (domains 1-10); also called PlxnA2 full ectodomain
B2: binds [3].

B3: PlxnA2_(4-5), PlxnA2 PSI2-IPT2 domains (domain or fragment, mouse)
chain: NCSAHQLCLSCVNSAFRCHWCKYRNLCTHDPTTCSFQEGRINVSEDCPQLVPTEEILIPVGEVKPITLKARNLPQPQSGQRGYECVLSIQGAVHRVPALRFNSSSVQCQNSSYQYDGMDISNLAVDFAVVWNGNFIIDNPQDLKVHLYK
modifications: enzymatically biotinylated with BirA via an engineered C-terminal tag
notes: Plexin-A2, mouse, PSI2 and IPT2 domains (domains 4-5); The crystallised PlxnA2_(4-5) (PDB 5L74) was made in HEK293S cells; also called wild-type PlxnA2_(4-5); not shown: biotinylation tag (BirA), C-terminal, kept
Molecule B3 has a Kd [4] of 20.9 ± 0.38 µM.
